The data set deals with the molecule itself. As to the kind of experiment: NMR relaxation.

B1: Smad5 MH1 domain (wild type) (domain or fragment, Homo sapiens)
chain: GPSFTSPAVKRLLGWKQGDEEEKWAEKAVDALVKKLKKKKGAMEELEKALSSPGQPSKCVTIPRSLDGRLQVSHRKGLPHVIYCRVWRWPDLQSHHELKPLDICEFPFGSKQKEVCINPYHYKRVESPVLPP
For orientation: Kd means the constant that tells how readily two partners part at equilibrium. B1: the affinity, expressed as Kd, was 8.3 ± 1.5 mM.

The record behind these values is paper PMC7810915 (Computational and Structural Biotechnology Journal, 2019).
